Assay [1] deals with T1, native RSV F protein from the RSV A2 strain (Respiratory Syncytial Virus strain A2, UniProt P03420 26-574). As to the kind of experiment: cell-based or functional assay.
For assay [2], the target named is T1, native RSV F protein from the RSV A2 …. As to the kind of experiment: ELISA, purified Fab, estimated EC50.
Assay [3] has the same target. As to the kind of experiment: cell-based or functional assay. This is another data set of the same source.
The target of assay [4] is F protein of RSV B-1 (respiratory syncytial virus B-1, UniProt O36634 26-574). Description: cell-based or functional assay.
Assay [5] concerns the target F protein of RSV B-wash (strain 18537) (respiratory syncytial virus B, strain …, UniProt P13843 26-574). As to the kind of experiment: cell-based or functional assay.
Assay [6] concerns the target T1, native RSV F protein from the RSV A2 …. Description: ELISA, IgG titrated, estimated EC50.
Assay [7] has as its target F protein of the parental RSV A2 strain (Example 11) (Respiratory Syncytial Virus strain A2, UniProt P03420 26-574). As to the kind of experiment: cell-based or functional assay.
The target in assay [8] is T2, recombinant RSV F protein, strain A2, extracellular domain (Respiratory Syncytial Virus strain A2, UniProt P03420 26-524).
T2 construct: also called RSV F1 lysate (recombinant); RSV F lysate
As to the kind of experiment: ELISA, purified Fab, estimated EC50.

Assay [9] has as its target F protein of the parental RSV A2 strain (Example 11) (Respiratory Syncytial Virus strain A2, UniProt P03420 26-574). As to the kind of experiment: cell-based or functional assay. The source holds these as a separate data set.
Assay [10] deals with T2, recombinant RSV F protein, strain A2, …. As to the kind of experiment: comparison of ELISA EC50. (In general: In an ELISA, binding on a coated surface is turned into a signal by an enzyme label.)
For assay [11] the target is unchanged. Description: ELISA, IgG titrated, estimated EC50.

Where two headings read alike, the source gives them in different places.

A word on the EC50: it is the concentration needed to bring the measured effect to its halfway point.

B1: Fab 38F10 (Fab, V domains shown)
VH: EVQLLESGGDVVQPGKSLRLSCTASGFSITDFGIHWVRQAPGKGLEWVALISYNEVNIHYGESVRGRFTISRDIAKNTVYLQMNGLRPEDTGVYFCARDVWEDSWLSLACFQEWGQGSLVVVSS
VL: DIQLTQSPPTLSASVGDRVSMTCRASQSISNWLAWYQQKPGKAPKLLIQKASNLEDGVPSRFTASGFGTEFTLTISSLQPDDFATYYCQQYNSYSGLSFGGGTKVDIKR
For B1, in assay [1], the “ED50, plaque reduction, RSV A2” value stood at 0.8 nM and the “ED50, plaque reduction, RSV A2 (mass concentration)” value was 0.04 µg/mL. Besides, in [2], the EC50 was 0.177 nM.

B2: IgG form of 38F10 (antibody, V domains shown)
VH: EVQLLESGGDVVQPGKSLRLSCTASGFSITDFGIHWVRQAPGKGLEWVALISYNEVNIHYGESVRGRFTISRDIAKNTVYLQMNGLRPEDTGVYFCARDVWEDSWLSLACFQEWGQGSLVVVSS
VL: DIQLTQSPPTLSASVGDRVSMTCRASQSISNWLAWYQQKPGKAPKLLIQKASNLEDGVPSRFTASGFGTEFTLTISSLQPDDFATYYCQQYNSYSGLSFGGGTKVDIKR
Turning to B2, the “ED50, plaque reduction, RSV A2” value in assay [3] amounted to 0.553 nM. In assay [4], the “ED50, plaque reduction, RSV B-1” value was 1.4 nM. Besides, the “ED50, plaque reduction, RSV B/wash” value in assay [5] worked out at 5.3 nM. Further, the EC50 in [6] was 0.035 nM.

B3: Fab 30D8 (Fab, V domains shown)
VH: EVQLLQSGAELKKPGASVKISCKTSGFTFSGHTIAWVRQAPGQGLEWMGWVSTNNGNTEYAQKIQGRVTMTMDTSTSTVYMELRSLTSDDTAVYFCAREWLVMGGFAFDHWGQGTLLTVSS
VL: QSVLTQASSVSVAPGQTARITCGANNIGSQNVHWYQQKPGQAPVLVVYDDRDRPSGIPDRFSGSNSGNTATLTISRVEAGDEADYYCQVWDSSRDQAVIFGGGTKLTVLG
Regarding B3, the “ED50, plaque reduction, RSV A2” value in assay [1] was determined as 0.107 nM.

B4: Fab 17C9 (Fab, V domains shown)
VH: QVQLQQWGAGLVRPSETLSLTCAVYGDSFNDYFWTWIRQTPGKGLEWIGEISHSGSTNYSPSLKSRVTISVDTSKNQFSLKLSAVTAADTTVYFCARGVRSRPPPSYRGSGSPPYYHYGMDVWGQGTTVTVSS
VL: EIVLTQSPSTLSASVGDRVTITCRASQNINTWLAWYQQKPGKAPKLLIYAASFLQSGVPSRFSGSGSGTDFTLTISNLQPEDFATYFCQQANSFPRTFGQGTKVEVKR
notes: also called 17C9 Fab
For B4, the “ED50, plaque reduction, RSV A2” value in [1] is 0.352 nM. The “ED50, plaque reduction, RSV A2 parental” value in assay [7] came out at 0.436 nM. Also, in assay [8], the 50% effective concentration (EC50) is 0.136 nM.

B5: IgG form of 17C9 (antibody, V domains shown)
VH: QVQLQQWGAGLVRPSETLSLTCAVYGDSFNDYFWTWIRQTPGKGLEWIGEISHSGSTNYSPSLKSRVTISVDTSKNQFSLKLSAVTAADTTVYFCARGVRSRPPPSYRGSGSPPYYHYGMDVWGQGTTVTVSS
VL: EIVLTQSPSTLSASVGDRVTITCRASQNINTWLAWYQQKPGKAPKLLIYAASFLQSGVPSRFSGSGSGTDFTLTISNLQPEDFATYFCQQANSFPRTFGQGTKVEVKR
Consider B5, for which the “ED50, plaque reduction, RSV A2” value in [3] is 0.363 nM. For the same molecule, the “ED50, plaque reduction, RSV B-1” value in assay [4] is 0.329 nM. Besides, in [5], the “ED50, plaque reduction, RSV B/wash” value worked out at 0.86 nM. Further, the EC50 in assay [6] was 0.059 nM.

B6: Motavizumab IgG (antibody, V domains shown)
VH: QVTLRESGPALVKPTQTLTLTCTFSGFSLSTAGMSVGWIRQPPGKALEWLADIWWDDKKHYNPSLKDRLTISKDTSKNQVVLKVTNMDPADTATYYCARDMIFNFYFDVWGQGTTVTVSS
VL: DIQMTQSPSTLSASVGDRVTITCSASSRVGYMHWYQQKPGKAPKLLIYDTSKLASGVPSRFSGSGSGTEFTLTISSLQPDDFATYYCFQGSGYPFTFGGGTKVEIK
As to B6, the “ED50, plaque reduction, RSV A2” value in assay [3] was 0.36 nM. For the same molecule, the “ED50, plaque reduction, RSV B-1” value in [4] stood at 0.833 nM. Further, the “ED50, plaque reduction, RSV B/wash” value in assay [5] worked out at 2.9 nM. Also, the “ED50, plaque reduction, RSV A2 parental” value in assay [9] came out at 0.519 nM. Moreover, the EC50 in assay [6] was 0.027 nM.

B7: Fab 104E5 (Fab, V domains shown)
VH: QVQLEQSGAEVKKPGSSVKVSCKPSGGTFDTYTISWVRQAPGQRLEWLGRIIPSLGETNYAHKLQGRVTITADKATSVVYMDLSDLTSEDAAVYYCAFRITGPVDWVWDYGMDVWGQGTTVSVSS
VL: DIQMTQSPSSLPASVGDRVTITCRASQNIKTYLNWYQQKPGRAPKLLISAVSNLQSGVPSRFSGTGSGTDFTLTISSLQPEDFATYYCQQSFSIPLTFGGGAKVEIKR
As to B7, in assay [1], the “ED50, plaque reduction, RSV A2” value amounted to 0.58 nM and the “ED50, plaque reduction, RSV A2 (mass concentration)” value worked out at 0.029 µg/mL. In addition, in assay [2], the concentration for a half-maximal effect (EC50) is 0.08 nM.

B8: IgG form of 104E5 (antibody, V domains shown)
VH: QVQLEQSGAEVKKPGSSVKVSCKPSGGTFDTYTISWVRQAPGQRLEWLGRIIPSLGETNYAHKLQGRVTITADKATSVVYMDLSDLTSEDAAVYYCAFRITGPVDWVWDYGMDVWGQGTTVSVSS
VL: DIQMTQSPSSLPASVGDRVTITCRASQNIKTYLNWYQQKPGRAPKLLISAVSNLQSGVPSRFSGTGSGTDFTLTISSLQPEDFATYYCQQSFSIPLTFGGGAKVEIKR
As to B8, in assay [3], the “ED50, plaque reduction, RSV A2” value was determined as 0.8 nM. In addition, the “ED50, plaque reduction, RSV B-1” value in [4] was 1.7 nM. The “ED50, plaque reduction, RSV B/wash” value in assay [5] is 8 nM. Besides, the EC50 in [6] was 0.0145 nM.

B9: Fab 90D3 (Fab, V domains shown)
VH: QVQLVESGGGLVKPGGSLRLSCVGSGFTLKNYEMNWVRQAPGQGLQYISYISSSGNVVKYVDSVQGRFTISRDNAGNSLYLQMNNLRAEDTATYYCVRGFSIDKYDSSVDEYWGQGIAVTVSS
VL: AIRLTQSPSSLSASVGDRVSITCRASQSISNFLNWYQQKPGRAPKLLISAASSLQGGVPSRFSGSGSGTDFTLTISSLQPEDFATYYCQQTYISLYTFGQGTKLEIKR
With B9, the “ED50, plaque reduction, RSV A2” value in [1] was determined as 0.8 nM.

B10: Fab 56E11 (Fab, V domains shown)
VH: EVQLQESGPGLVKPSETLSLTCSVSGVSINSNNYFWAWIRQPPGKGLEWIGNIYYGGSTHYNASLQSRVTISVDTSKSQFSLKLNSVTSADTAVYYCAASESIFWDYYYGLDVWGQGTTVTVSS
VL: QAVLTQPPSASGSPGQSVTISCTGTSSDVGGYNYVSWYQQHPGKAPRLIISEVTKRPSGVPGRFSGSKSGNTASLTVSGLQAEDEADYYCSSYAGSRHVVFGGGTKLTVLG
notes: also called 56E11 Fab
For the molecule B10, the “ED50, plaque reduction, RSV A2” value in assay [1] was determined as 0.93 nM. The EC50 in assay [8] was 0.545 nM.

B11: IgG form of 56E11 (antibody, V domains shown)
VH: EVQLQESGPGLVKPSETLSLTCSVSGVSINSNNYFWAWIRQPPGKGLEWIGNIYYGGSTHYNASLQSRVTISVDTSKSQFSLKLNSVTSADTAVYYCAASESIFWDYYYGLDVWGQGTTVTVSS
VL: QAVLTQPPSASGSPGQSVTISCTGTSSDVGGYNYVSWYQQHPGKAPRLIISEVTKRPSGVPGRFSGSKSGNTASLTVSGLQAEDEADYYCSSYAGSRHVVFGGGTKLTVLG
Turning to B11, the “fold less affinity than the IgG form of 30D8” value in assay [10] was approximately 10 fold. Moreover, the “ED50, plaque reduction, RSV B-1” value in assay [4] was found to be 0.295 nM. Also, in [5], the “ED50, plaque reduction, RSV B/wash” value worked out at 0.282 nM. The EC50 in [11] is 0.073 nM.

B12: Fab 69F6 (Fab, V domains shown)
VH: QMQLVQSGAEVRKPGESLKIACKGSGYSFTSYWIAWVRQMPGKGLEWLGIIFPNDSDATYSPSFQGQVTMSVDKSISTAYLQWNSLKASDTAVYFCARQYYLGSFESWGQGTTVTVSS
VL: EIVLTQSPSSLSASVGDRVTISCQASQDISNYLNWYQQKPGKAPRLLIYDASYLDTGVPSRFSGSGSGTDFTFTISSLQPEDFATYYCQQYDDLRGGFTFGPGTKVDVKR
notes: also called 69F6 Fab
As for B12, in [1], the “ED50, plaque reduction, RSV A2” value was 0.26 nM. Besides, in assay [7], the “ED50, plaque reduction, RSV A2 parental” value stood at 0.256 nM. Moreover, the concentration giving a half-maximal response (EC50) in assay [8] was 0.135 nM.

B13: IgG form of 69F6 (antibody, V domains shown)
VH: QMQLVQSGAEVRKPGESLKIACKGSGYSFTSYWIAWVRQMPGKGLEWLGIIFPNDSDATYSPSFQGQVTMSVDKSISTAYLQWNSLKASDTAVYFCARQYYLGSFESWGQGTTVTVSS
VL: EIVLTQSPSSLSASVGDRVTISCQASQDISNYLNWYQQKPGKAPRLLIYDASYLDTGVPSRFSGSGSGTDFTFTISSLQPEDFATYYCQQYDDLRGGFTFGPGTKVDVKR
Turning to B13, the “fold less affinity than the IgG form of 30D8” value in assay [10] is approximately 10 fold. The “ED50, plaque reduction, RSV B-1” value in assay [4] is more than 67 nM. In assay [5], the “ED50, plaque reduction, RSV B/wash” value was more than 67 nM. The EC50 in assay [11] was 0.063 nM.

B14: IgG form of 14G3 (antibody, V domains shown)
VH: QVQLQESGPGLVKPSQTLSLTCTVSGASISSDNHYWSWIRQPPGKGLEWIASIYYTGGTNYNPSLKSRLALSIDTSGDQFSLKLSSVTAADTAVYYCVRGLFFITARPYWYFDLWGRGTLVAVSS
VL: DVVMTQTPLSLSVTPGEPASISCRSSQSLLDSDDGNTYLDWYLQKPGQSPQLLIYTLSYRASGVPDRFSGSGSGTDFTLKISRVEADDVGIYYCMQRMEFPFTFGQGTRLDIKR
On to B14, for which the “ED50, plaque reduction, RSV B-1” value in assay [4] worked out at 10.7 nM. Besides, in [5], the “ED50, plaque reduction, RSV B/wash” value turned out to be 4.5 nM. In addition, in assay [11], the EC50 is 0.251 nM.

The values above are taken from US20140363427A1 (CRUCELL HOLLAND B V, published 2014).
